Experimental findings from US6677433B2 (The Regents of the University of California, priority 2001, dated 2004) are described below.

One test has as its target NADP/thioredoxin system (Escherichia coli, UniProt P0AA25). The protocol:
Direct reduction of the proteins under study was determined by a modification of the method of Crawford et al. (Crawford, N. A. et al. (1989), Arch. Biochem. Biophys. 271:223-239). The reaction was carried out in 100 mM potassium phosphate buffer, pH 7.1, containing 10 mM EDTA and 16% glycerol in a final volume of 0.1 ml. As indicated, 0.7 μg (0.1 μM) NTR and 1 μg (0.8 μM) thioredoxin (both routinely from E. coli were added to 70 μl of the buffer solution containing 1 mM NADPH and 10 μg (2 to 17 μM) of target protein. When thioredoxin was reduced by dithiothreitol (DTT, 0.5 mM), NADPH and NTR were omitted. Assays with reduced glutathione were performed similarly, but at a final concentration of 1 mM. After incubation for 20 min, 100 nmoles of mBBr were added and the reaction was continued for another 15 min. To stop the reaction and derivatize excess mBBr, 10 μl of 10% SDS and 10 μl of 100 mM β-mercaptoethanol were added and the samples were then applied to the gels. In the case of reduction by glutaredoxin, the thioredoxin and NTR were replaced by 1 μg (0.8 μM) E. coli glutaredoxin, 1.4 μg (0.14 μM) glutathione reductase purified from spinach leaves (Florencio, F. J. et al. (1988), Arch. Biochem. Biophys. 266:496-507) and 1.5 mM NADPH was used.

The target of the next test is T1, Fructose Bisphosphatase (Spinacia oleracea, UniProt P22418).
T1 construct: fructose-1,6-bisphosphatase (FBPase) were purified from leaves of corn (Jacquot, J.-P. et al. (1981), Plant Physiol. 68:300-304) and spinach; from tissue; host or cells: spinach leaves
T1 sequence (P22418 58-415): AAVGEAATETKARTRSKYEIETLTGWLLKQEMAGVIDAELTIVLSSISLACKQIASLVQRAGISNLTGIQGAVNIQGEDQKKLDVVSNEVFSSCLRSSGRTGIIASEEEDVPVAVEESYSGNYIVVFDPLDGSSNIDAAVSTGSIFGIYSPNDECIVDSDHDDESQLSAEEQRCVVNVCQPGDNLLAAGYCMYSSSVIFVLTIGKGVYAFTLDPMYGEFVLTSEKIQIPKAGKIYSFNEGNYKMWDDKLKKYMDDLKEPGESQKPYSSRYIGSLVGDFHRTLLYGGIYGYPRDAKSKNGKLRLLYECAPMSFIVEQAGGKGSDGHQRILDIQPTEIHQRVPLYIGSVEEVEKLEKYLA
In words: Activation of chloroplast fructose bisphosphatase by thioredoxin-reduced proteins. Format: biochemical, spinach. The settings on record: standard DTT assay, 1 μg E. coli thioredoxin, 20 μg protein; corrected for thioredoxin alone. The protocol:
The NADP-MDH, FBPase, NTR and Thioredoxin h assay methods were according to Florencio, F. J. et al. (1988), Arch. Biochem. Biophys. 266:496-507 with slight modifications as indicated. For enzyme activation assays, the preincubation time was 20 min unless specified otherwise.
The capability to replace a specific thioredoxin in the activation of chloroplast enzymes is one test for the ability of thiol groups of a given protein to undergo reversible redox change. […] A case in point is purothionin which, when reduced by thioredoxin h activates chloroplast FBPase (Wada, K. et al. (1981), FEBS Lett. 124:237-240, and Johnson, T. C. et al. (1987), Plant Physiol. 85:446-451). The FBPase, whose physiological activator is thioredoxin f, is unaffected by thioredoxin h. In this Example, the ability of cystine-rich proteins to activate FBPase as well as NADP-MDH was tested as set forth above. […]
The Wada et al., 1981 protocol was used for assaying NADP-malate dehydrogenase and fructose 1,6 bisphosphatase in the presence of thioredoxin and 2S protein. […] The 2S protein was monitored during purification by mBBr/SDS-polyacrylamide gel electrophoresis following its reduction by dithiothreitol and E. coli thioredoxin (Crawford et al., 1989; Kobrehel et al., 1991).

B1: Soybean Kunitz: Kunitz soybean trypsin inhibitor (protein, UniProt P01070 25-205, looked up)
Trypsin inhibitor A: DFVLDNEGNPLENGGTYYILSDITAFGGIRAAPTGNERCPLTVVQSRNELDKGIGTIISSPYRIRFIAEGHPLSLKFDSFAVIMLCVGIPTEWSVVEDLPEGPAVKIGENKDAMDGWFRLERVSDDEFNNYKLVFCPQQAEDDKCGDIGISIDHDDGTRRLVVSKNKPLVVQFQKLDKESL
Regarding B1, in the test with NADP/thioredoxin system, the “% Reduction After 20 min” value stood at 14% and the “% Reduction After 120 min” value is on record as 22%. Further, in the test with Fructose Bisphosphatase, the “ACTIVITY, FBPase” value was 0 nkat/mg.
